Values joined by “and” are separate entries in the source; they are usually repeats but may differ in a detail not shown here. Identical values can stand only once.
Legend:
[1] = biological target: T1, Human STAT3 Protein (recombinant) (human, UniProt P40763 1-770); test: SPR, Biacore 3000
T1 construct: also called recombinant STAT3

[2] = biological target: STAT3 (endogenous, in human cells and from lysed cancer cell lines) (human, UniProt P40763 2-770); test: cell-based or functional assay

binding result [1] | IC50, STAT3 luciferase reporter assay in HEK 293 cells after IL-6 stimulation [2] | Binder
no binding | – | Anti-KRAS VHH (SBT-102 (SEQ ID NO: 2)) (VHH) VHH: EVQLVESGGGSVQTGGSLRLSCAVSGNIGSSYCMGWFRQAPGKKREAVARIVRDGATGYADYVKGRFTISRDSAKNTLYLQMNRLIPEDTAIYYCAADLPPGCLTQAIWNFGYRGQGTLVTVSS
– | 2.68 µg/mL and 0.18 µM | Anti-KRAS/Anti-STAT3 VHH (SBT-100 (SEQ ID NO: 1)) (VHH) VHH: HVQLVESGGGSVQAGGSLRLSCAASGANGGRSCMGWFRQVPGKEREGVSGISTGGLITYYADSVKGRFTISQDNTKNTLYLQMNSLKPEDTAMYYCATSRFDCYRGSWFNRYMYNSWGQGTQVTVSS
